Experimental data taken from patent US20140045756A1 (NEW YORK UNIVERSITY, published 2014).

T1: TNFR2 (TNFRSF1B/CD120b), yeast two-hybrid construct (mouse (clone from a murine embryonic …, UniProt P25119 23-258))
T1 construct: one molecule is used for all Y2H assays; also called cell surface TNFR2
T1 sequence (looked up): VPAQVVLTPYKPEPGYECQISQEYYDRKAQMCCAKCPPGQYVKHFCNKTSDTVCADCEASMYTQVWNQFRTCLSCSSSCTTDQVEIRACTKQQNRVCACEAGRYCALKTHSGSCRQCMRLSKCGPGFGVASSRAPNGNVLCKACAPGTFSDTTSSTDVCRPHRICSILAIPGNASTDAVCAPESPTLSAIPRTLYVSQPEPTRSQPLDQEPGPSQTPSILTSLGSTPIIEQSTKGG

B1: PGRN granulin unit A (yeast two-hybrid construct) (peptide)
chain: DVKCDMEVSCPDGYTCCRLQSGAWGCCPFTQAVCCEDHIHCCPAGFTCDTQKGTCE
notes: also called granulin A
B2: PGRN granulin unit F (yeast two-hybrid construct) (peptide)
chain: AIQCPDSQFECPDFSTCCVMVDGSWGCCPMPQASCCEDRVHCCPHGAFCDLVHTRCI
notes: also called granulin F
B3: PGRN granulin unit C (yeast two-hybrid construct) (peptide)
chain: VPCDNVSSCPSSDTCCQLTSGEWGCCPIPEAVCCSDHQHCCPQGYTCVAEGQCQ
notes: also called granulin C

These binders were tested against T1, TNFR2 (TNFRSF1B/CD120b), yeast … (assay: yeast two-hybrid, β-galactosidase assay).
Description: Assay of protein-protein interactions using the Y2H system. Independent yeast colonies were analyzed for the interaction of two proteins, one of which was fused to the Ga14 DNA binding domain and the other, to the VP16 transactivation domain. Previously published procedures were followed for 1) growing and transforming the yeast strain MAV203 with the selected plasmids; and 2) determining β-galactosidase activity and growth phenotypes on selective media lacking tryptophan, leucine, histidine, and uracil.
B1: no binding.
LSKENATTDLLTKLPAHTVGD [PGRN linker region P4 (yeast two-hybrid construct)]: no binding.
B2: no binding.
EQGPHQVPWMEKAPAHLSLPDPQALKRDV [PGRN linker region P5 (yeast two-hybrid construct)]: no binding.
B3: no binding.
ITPTGTHPLAKKLPAQRTNRAVALSSS [PGRN linker region P3 (yeast two-hybrid construct)]: no binding.
